# Test results from patent US20220402995A1 (TOSOH, published 2022).
# How the values were obtained:
# [1] = target: T1, VLP2 (virus-like particles of AAV2) (AAV2, UniProt P03135 1-735; P03135 1-598; P03135 1-533); assay: ELISA on VLP2; binding after pH 3.0 51.1°C 15 min / untreated;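 note: binding of the heat-treated AAV-binding protein to VLP2, expressed as a percentage of the binding of the same protein without heating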
# T1 construct: Empty AAV2 capsid; background says about 60 protein molecules, VP1:VP2:VP3 = 1:1:10; Immobilised on the ELISA plate
# Experimental: (§1) The residual activity was calculated by dividing the binding activity of AAV-binding protein to VLP2 when the heat treatment was performed by the binding activity of AAV-binding protein to VLP2 when the heat treatment was not performed.
# [2] = target: T1, VLP2 (virus-like particles of AAV2); assay: ELISA on VLP2; binding after pH 3.0 61.0°C 15 min / untreated
# Experimental: (3) The culture solution of (2) was centrifuged, and the obtained culture supernatant was diluted 32-fold with ultrapure water. The diluted culture solution in an amount of 60 μL and 60 μL of 0.1 M glycine hydrochloric acid buffer (pH 3.0) were mixed, and heat treatment and acid treatment were performed at 61.0° C. for 15 minutes.
# as §1
# T1 sequence (P03135 whole entry, chain 1 of 3): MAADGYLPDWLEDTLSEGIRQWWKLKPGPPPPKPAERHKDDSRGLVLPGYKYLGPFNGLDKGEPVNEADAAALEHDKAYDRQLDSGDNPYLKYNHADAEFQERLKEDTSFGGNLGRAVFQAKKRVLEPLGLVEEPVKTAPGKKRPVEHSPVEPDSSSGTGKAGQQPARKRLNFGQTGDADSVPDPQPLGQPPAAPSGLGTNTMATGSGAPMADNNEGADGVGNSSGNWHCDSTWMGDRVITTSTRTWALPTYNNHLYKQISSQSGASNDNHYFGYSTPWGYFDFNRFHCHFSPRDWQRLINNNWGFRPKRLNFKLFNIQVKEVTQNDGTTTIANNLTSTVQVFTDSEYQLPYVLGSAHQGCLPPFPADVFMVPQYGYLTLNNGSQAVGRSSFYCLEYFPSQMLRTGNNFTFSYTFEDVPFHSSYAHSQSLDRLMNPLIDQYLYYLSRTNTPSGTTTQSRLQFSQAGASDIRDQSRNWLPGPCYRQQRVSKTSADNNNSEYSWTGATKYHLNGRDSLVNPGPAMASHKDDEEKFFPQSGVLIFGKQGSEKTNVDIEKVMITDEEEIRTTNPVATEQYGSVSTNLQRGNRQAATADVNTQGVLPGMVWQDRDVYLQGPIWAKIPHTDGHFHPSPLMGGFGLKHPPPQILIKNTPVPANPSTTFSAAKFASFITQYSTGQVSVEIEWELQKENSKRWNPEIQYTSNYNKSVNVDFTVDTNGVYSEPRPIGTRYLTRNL
# T1 sequence (P03135 139-735, tags left off, chain 2 of 3): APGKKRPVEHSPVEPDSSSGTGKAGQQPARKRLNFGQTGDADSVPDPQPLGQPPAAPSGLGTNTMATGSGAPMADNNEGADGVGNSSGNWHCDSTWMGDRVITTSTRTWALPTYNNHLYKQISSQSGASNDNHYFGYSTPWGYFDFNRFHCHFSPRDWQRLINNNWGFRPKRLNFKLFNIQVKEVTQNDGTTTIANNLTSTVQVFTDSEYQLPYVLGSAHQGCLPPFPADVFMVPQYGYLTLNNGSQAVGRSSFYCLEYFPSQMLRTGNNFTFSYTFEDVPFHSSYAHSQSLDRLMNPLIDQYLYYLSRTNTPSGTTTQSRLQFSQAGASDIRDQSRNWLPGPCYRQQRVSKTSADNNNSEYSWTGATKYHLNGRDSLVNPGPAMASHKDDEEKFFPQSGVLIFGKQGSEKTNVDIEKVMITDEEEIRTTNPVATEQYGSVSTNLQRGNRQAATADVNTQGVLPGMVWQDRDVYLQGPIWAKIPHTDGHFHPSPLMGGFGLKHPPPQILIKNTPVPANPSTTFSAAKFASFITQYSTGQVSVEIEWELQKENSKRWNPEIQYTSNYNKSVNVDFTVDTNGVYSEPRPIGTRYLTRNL
# T1 sequence (P03135 203-735, chain 3 of 3): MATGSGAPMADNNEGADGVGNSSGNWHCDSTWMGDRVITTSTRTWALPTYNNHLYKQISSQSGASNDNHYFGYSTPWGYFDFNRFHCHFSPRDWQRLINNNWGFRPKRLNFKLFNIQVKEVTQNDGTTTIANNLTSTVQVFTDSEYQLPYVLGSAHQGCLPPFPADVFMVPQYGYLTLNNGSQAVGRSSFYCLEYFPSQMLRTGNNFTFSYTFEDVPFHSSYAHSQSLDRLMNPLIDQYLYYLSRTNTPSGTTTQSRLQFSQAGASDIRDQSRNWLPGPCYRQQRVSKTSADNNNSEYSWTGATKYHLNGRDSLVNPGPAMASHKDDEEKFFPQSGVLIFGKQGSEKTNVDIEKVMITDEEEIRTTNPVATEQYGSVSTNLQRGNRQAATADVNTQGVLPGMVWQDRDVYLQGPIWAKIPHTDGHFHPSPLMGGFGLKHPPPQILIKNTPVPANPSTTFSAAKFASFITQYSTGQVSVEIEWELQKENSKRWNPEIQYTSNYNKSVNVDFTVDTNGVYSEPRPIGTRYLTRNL
Binder,Residual activity [%] [1] [%],Residual activity [%] [2] [%]
"AAV-binding protein No. 78 (AVR2 + Leu328Pro, Ile366Phe) (receptor) MGSAGESVQITLPKNEVQPNAYVLQEPPKGETCTYDWQLITHPRDYSGEMEGKHSQFLKLSKLTPGLYEFKVIVEGQNAHSEGYVNVTVKPEPRKNRPPIAIVSPQFQEISLPTTSTVIDGSQSTDDDKIVQYHWEELKGPLREEKISEDTAILKLSKLVPGNYTFSLTVVDSDGATNSTTANLTVNKAVDHHHHHH",55.9,–
"AAV-binding protein No. 80 (AVR2 + Gln365Arg, Gly392Cys) (receptor) MGSAGESVQITLPKNEVQLNAYVLQEPPKGETCTYDWQLITHPRDYSGEMEGKHSRILKLSKLTPGLYEFKVIVEGQNAHSECYVNVTVKPEPRKNRPPIAIVSPQFQEISLPTTSTVIDGSQSTDDDKIVQYHWEELKGPLREEKISEDTAILKLSKLVPGNYTFSLTVVDSDGATNSTTANLTVNKAVDHHHHHH",49.9,–
AAV-binding protein No. 90 (AVR5e + Gly392Cys) (receptor) MGSAGESVQITLPKNEVQLNAYVLQEPPKGETCTYDWQLITHPRDYSGEMEGKHSQILKLSKLTPGLYEFKVIVEGQNAHSECYVNVTVEPEPRKNRPPIAIVSPQFQEISLPTTSTVIDGSQSTDDDKIVQYHWEELKGPLREEKISEDTAILKLSKLVPGNYTFRLTVVDSDGATDSTTANLTVNKAVDHHHHHH,–,53.3
"AAV-binding protein No. 100 (AVR5e + Asn324Asp, Lys362Glu, Val499Glu) (receptor) MGSAGESVQITLPKDEVQLNAYVLQEPPKGETCTYDWQLITHPRDYSGEMEGEHSQILKLSKLTPGLYEFKVIVEGQNAHSEGYVNVTVEPEPRKNRPPIAIVSPQFQEISLPTTSTVIDGSQSTDDDKIVQYHWEELKGPLREEKISEDTAILKLSKLVPGNYTFRLTVVDSDGATDSTTANLTVNKAEDHHHHHH",–,50.1
"AAV-binding protein No. 101 (AVR5e + Val326Glu, Asn329His, Glu378Val) (receptor) MGSAGESVQITLPKNEEQLHAYVLQEPPKGETCTYDWQLITHPRDYSGEMEGKHSQILKLSKLTPGLYVFKVIVEGQNAHSEGYVNVTVEPEPRKNRPPIAIVSPQFQEISLPTTSTVIDGSQSTDDDKIVQYHWEELKGPLREEKISEDTAILKLSKLVPGNYTFRLTVVDSDGATDSTTANLTVNKAVDHHHHHH",–,48.5
AAV-binding protein No. 89 (AVR5e + Glu378Gly) (receptor) MGSAGESVQITLPKNEVQLNAYVLQEPPKGETCTYDWQLITHPRDYSGEMEGKHSQILKLSKLTPGLYGFKVIVEGQNAHSEGYVNVTVEPEPRKNRPPIAIVSPQFQEISLPTTSTVIDGSQSTDDDKIVQYHWEELKGPLREEKISEDTAILKLSKLVPGNYTFRLTVVDSDGATDSTTANLTVNKAVDHHHHHH,–,46.1
"AAV-binding protein No. 92 (AVR5e + Thr320Ala, Val381Asp) (receptor) MGSAGESVQIALPKNEVQLNAYVLQEPPKGETCTYDWQLITHPRDYSGEMEGKHSQILKLSKLTPGLYEFKDIVEGQNAHSEGYVNVTVEPEPRKNRPPIAIVSPQFQEISLPTTSTVIDGSQSTDDDKIVQYHWEELKGPLREEKISEDTAILKLSKLVPGNYTFRLTVVDSDGATDSTTANLTVNKAVDHHHHHH",–,52.4
"AAV-binding protein No. 102 (AVR5e + Leu328Pro, Lys362Asn, Thr397Ser, Arg406His) (receptor) MGSAGESVQITLPKNEVQPNAYVLQEPPKGETCTYDWQLITHPRDYSGEMEGNHSQILKLSKLTPGLYEFKVIVEGQNAHSEGYVNVSVEPEPRKNHPPIAIVSPQFQEISLPTTSTVIDGSQSTDDDKIVQYHWEELKGPLREEKISEDTAILKLSKLVPGNYTFRLTVVDSDGATDSTTANLTVNKAVDHHHHHH",–,41.1
"AAV-binding protein No. 82 (AVR2 + Ser476Arg, Thr490Ser) (receptor) MGSAGESVQITLPKNEVQLNAYVLQEPPKGETCTYDWQLITHPRDYSGEMEGKHSQILKLSKLTPGLYEFKVIVEGQNAHSEGYVNVTVKPEPRKNRPPIAIVSPQFQEISLPTTSTVIDGSQSTDDDKIVQYHWEELKGPLREEKISEDTAILKLSKLVPGNYTFRLTVVDSDGATNSTSANLTVNKAVDHHHHHH",70.6,–
"AAV-binding protein No. 97 (AVR5e + Val332Ala, Lys371Glu) (receptor) MGSAGESVQITLPKNEVQLNAYALQEPPKGETCTYDWQLITHPRDYSGEMEGKHSQILKLSELTPGLYEFKVIVEGQNAHSEGYVNVTVEPEPRKNRPPIAIVSPQFQEISLPTTSTVIDGSQSTDDDKIVQYHWEELKGPLREEKISEDTAILKLSKLVPGNYTFRLTVVDSDGATDSTTANLTVNKAVDHHHHHH",–,49.6
"AAV-binding protein No. 83 (AVR2 + Ile319Ser, Thr320Ile, Lys399Glu) (receptor) MGSAGESVQSILPKNEVQLNAYVLQEPPKGETCTYDWQLITHPRDYSGEMEGKHSQILKLSKLTPGLYEFKVIVEGQNAHSEGYVNVTVEPEPRKNRPPIAIVSPQFQEISLPTTSTVIDGSQSTDDDKIVQYHWEELKGPLREEKISEDTAILKLSKLVPGNYTFSLTVVDSDGATNSTTANLTVNKAVDHHHHHH",70.2,–
"AAV-binding protein No. 84 (AVR2 + Pro336Gln, Gln386Arg, Asn487Asp) (receptor) MGSAGESVQITLPKNEVQLNAYVLQEQPKGETCTYDWQLITHPRDYSGEMEGKHSQILKLSKLTPGLYEFKVIVEGRNAHSEGYVNVTVKPEPRKNRPPIAIVSPQFQEISLPTTSTVIDGSQSTDDDKIVQYHWEELKGPLREEKISEDTAILKLSKLVPGNYTFSLTVVDSDGATDSTTANLTVNKAVDHHHHHH",48.4,–
AAV-binding protein No. 86 (AVR5e + Lys371Glu) (receptor) MGSAGESVQITLPKNEVQLNAYVLQEPPKGETCTYDWQLITHPRDYSGEMEGKHSQILKLSELTPGLYEFKVIVEGQNAHSEGYVNVTVEPEPRKNRPPIAIVSPQFQEISLPTTSTVIDGSQSTDDDKIVQYHWEELKGPLREEKISEDTAILKLSKLVPGNYTFRLTVVDSDGATDSTTANLTVNKAVDHHHHHH,–,41.6
AAV-binding protein No. 88 (AVR5e + Leu376Pro) (receptor) MGSAGESVQITLPKNEVQLNAYVLQEPPKGETCTYDWQLITHPRDYSGEMEGKHSQILKLSKLTPGPYEFKVIVEGQNAHSEGYVNVTVEPEPRKNRPPIAIVSPQFQEISLPTTSTVIDGSQSTDDDKIVQYHWEELKGPLREEKISEDTAILKLSKLVPGNYTFRLTVVDSDGATDSTTANLTVNKAVDHHHHHH,–,41.7
"AAV-binding protein No. 81 (AVR2 + Phe379Ser, Ser476Gly) (receptor) MGSAGESVQITLPKNEVQLNAYVLQEPPKGETCTYDWQLITHPRDYSGEMEGKHSQILKLSKLTPGLYESKVIVEGQNAHSEGYVNVTVKPEPRKNRPPIAIVSPQFQEISLPTTSTVIDGSQSTDDDKIVQYHWEELKGPLREEKISEDTAILKLSKLVPGNYTFGLTVVDSDGATNSTTANLTVNKAVDHHHHHH",66.3,–
"AAV-binding protein No. 95 (AVR5e + Val326Ala, Lys362Glu) (receptor) MGSAGESVQITLPKNEAQLNAYVLQEPPKGETCTYDWQLITHPRDYSGEMEGEHSQILKLSKLTPGLYEFKVIVEGQNAHSEGYVNVTVEPEPRKNRPPIAIVSPQFQEISLPTTSTVIDGSQSTDDDKIVQYHWEELKGPLREEKISEDTAILKLSKLVPGNYTFRLTVVDSDGATDSTTANLTVNKAVDHHHHHH",–,45.3
"AAV-binding protein No. 98 (AVR5e + Leu376Pro, Asn492Asp) (receptor) MGSAGESVQITLPKNEVQLNAYVLQEPPKGETCTYDWQLITHPRDYSGEMEGKHSQILKLSKLTPGPYEFKVIVEGQNAHSEGYVNVTVEPEPRKNRPPIAIVSPQFQEISLPTTSTVIDGSQSTDDDKIVQYHWEELKGPLREEKISEDTAILKLSKLVPGNYTFRLTVVDSDGATDSTTADLTVNKAVDHHHHHH",–,47.6
"AAV-binding protein No. 99 (AVR5e + Gln318Pro, Phe379Tyr, Glu401Val) (receptor) MGSAGESVPITLPKNEVQLNAYVLQEPPKGETCTYDWQLITHPRDYSGEMEGKHSQILKLSKLTPGLYEYKVIVEGQNAHSEGYVNVTVEPVPRKNRPPIAIVSPQFQEISLPTTSTVIDGSQSTDDDKIVQYHWEELKGPLREEKISEDTAILKLSKLVPGNYTFRLTVVDSDGATDSTTANLTVNKAVDHHHHHH",–,54
AAV-binding protein No. 87 (AVR5e + Lys371Asn) (receptor) MGSAGESVQITLPKNEVQLNAYVLQEPPKGETCTYDWQLITHPRDYSGEMEGKHSQILKLSNLTPGLYEFKVIVEGQNAHSEGYVNVTVEPEPRKNRPPIAIVSPQFQEISLPTTSTVIDGSQSTDDDKIVQYHWEELKGPLREEKISEDTAILKLSKLVPGNYTFRLTVVDSDGATDSTTANLTVNKAVDHHHHHH,–,56.5
AAV-binding protein No. 85 (AVR5e + Val317Asp) (receptor) MGSAGESDQITLPKNEVQLNAYVLQEPPKGETCTYDWQLITHPRDYSGEMEGKHSQILKLSKLTPGLYEFKVIVEGQNAHSEGYVNVTVEPEPRKNRPPIAIVSPQFQEISLPTTSTVIDGSQSTDDDKIVQYHWEELKGPLREEKISEDTAILKLSKLVPGNYTFRLTVVDSDGATDSTTANLTVNKAVDHHHHHH,–,50.2
"AAV-binding protein No. 79 (AVR2 + Lys338Asn, Asn487Asp) (receptor) MGSAGESVQITLPKNEVQLNAYVLQEPPNGETCTYDWQLITHPRDYSGEMEGKHSQILKLSKLTPGLYEFKVIVEGQNAHSEGYVNVTVKPEPRKNRPPIAIVSPQFQEISLPTTSTVIDGSQSTDDDKIVQYHWEELKGPLREEKISEDTAILKLSKLVPGNYTFSLTVVDSDGATDSTTANLTVNKAVDHHHHHH",73.1,–
"AAV-binding protein No. 96 (AVR5e + Val326Glu, Phe379Ser) (receptor) MGSAGESVQITLPKNEEQLNAYVLQEPPKGETCTYDWQLITHPRDYSGEMEGKHSQILKLSKLTPGLYESKVIVEGQNAHSEGYVNVTVEPEPRKNRPPIAIVSPQFQEISLPTTSTVIDGSQSTDDDKIVQYHWEELKGPLREEKISEDTAILKLSKLVPGNYTFRLTVVDSDGATDSTTANLTVNKAVDHHHHHH",–,60.9
"AAV-binding protein No. 94 (AVR5e + Val326Glu, Asn329His) (receptor) MGSAGESVQITLPKNEEQLHAYVLQEPPKGETCTYDWQLITHPRDYSGEMEGKHSQILKLSKLTPGLYEFKVIVEGQNAHSEGYVNVTVEPEPRKNRPPIAIVSPQFQEISLPTTSTVIDGSQSTDDDKIVQYHWEELKGPLREEKISEDTAILKLSKLVPGNYTFRLTVVDSDGATDSTTANLTVNKAVDHHHHHH",–,44.9
